Patent publication US20030099608A1 (ZymoGenetics, published 2003)
Each block holds one molecule with its values, some of them ahead of it.

Key:
[1] = target: human IL-TIF (T-cell inducible Factor) (human) (UniProt Q9GZX6); test: cell-based or functional assay
[2] = target: T1, CRF2-4/zcytor11 heterodimeric receptor on BaF3 cells (BaF3/CRF2-4/zcytor11 cells) (human, UniProt Q08334 20-325; Q8N6P7 16-574); test: cell-based or functional assay
T1 sequence (looked up) 1: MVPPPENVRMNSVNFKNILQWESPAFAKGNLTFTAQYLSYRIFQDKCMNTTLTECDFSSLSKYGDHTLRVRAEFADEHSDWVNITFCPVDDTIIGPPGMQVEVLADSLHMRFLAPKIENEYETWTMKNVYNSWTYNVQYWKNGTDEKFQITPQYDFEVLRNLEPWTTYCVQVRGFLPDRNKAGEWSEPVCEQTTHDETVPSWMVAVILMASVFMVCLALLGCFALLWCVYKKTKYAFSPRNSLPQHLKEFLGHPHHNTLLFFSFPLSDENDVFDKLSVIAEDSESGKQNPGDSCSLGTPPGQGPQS
T1 sequence (looked up) 2: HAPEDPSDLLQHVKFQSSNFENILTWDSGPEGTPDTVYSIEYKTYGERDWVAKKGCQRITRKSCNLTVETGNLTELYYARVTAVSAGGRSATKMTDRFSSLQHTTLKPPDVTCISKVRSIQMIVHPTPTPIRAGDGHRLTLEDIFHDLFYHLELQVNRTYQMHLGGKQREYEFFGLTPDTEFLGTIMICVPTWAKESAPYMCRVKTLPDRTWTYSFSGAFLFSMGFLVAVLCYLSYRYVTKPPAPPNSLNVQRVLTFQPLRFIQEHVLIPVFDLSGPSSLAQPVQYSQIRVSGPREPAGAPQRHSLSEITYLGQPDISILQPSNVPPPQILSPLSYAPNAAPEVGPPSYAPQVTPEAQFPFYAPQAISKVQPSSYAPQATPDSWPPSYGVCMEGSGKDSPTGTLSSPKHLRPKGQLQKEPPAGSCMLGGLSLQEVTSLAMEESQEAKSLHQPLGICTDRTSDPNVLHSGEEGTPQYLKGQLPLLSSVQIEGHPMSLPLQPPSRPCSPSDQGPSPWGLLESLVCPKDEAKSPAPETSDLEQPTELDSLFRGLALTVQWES

- concentration of CRF2-4/zcytor11-Fc4 at which inhibition of proliferation induced by 100 pg/ml IL-TIF was barely detectable [1]: 63 ng/mL
- concentration of CRF2-4/zcytor11-Fc4 giving complete inhibition of proliferation induced by 100 pg/ml IL-TIF [1]: 8 µg/mL
Molecule: secreted hzcytor11/hCRF2-4 heterodimer (CRF2-4/zcytor11-Fc4) (Fc fusion)

- proliferation of BaF3/CRF2-4/zcytor11 cells (Alamar Blue), fold induction at 0.06 ng/ml IL-TIF-CEE [2]: 2 fold induction
- proliferation of BaF3/CRF2-4/zcytor11 cells (Alamar Blue), fold over background at 50 ng/ml IL-TIF-CEE [2]: ~15 fold over background
B1: IL-TIF-CEE (IL-TIF polypeptide with C-terminal Glu-Glu tag) (ligand)
chain: APISSHCRLDKSNFQQPYITNRTFMLAKEASLADNNTDVRLIGEKLFHGVSMSERCYLMKQVLNFTLEEVLFPQSDRFQPYMQEVVPFLARLSNRLSTCHIEGDDLHIQRNVQKLKDTVKKLGESGEIKAIGELDLLFMSLRNACIEYMPME

- proliferation of BaF3/CRF2-4/zcytor11 cells (Alamar Blue), fold over background with 100 pg/ml IL-TIF alone [2]: 13 fold over background
B2: human IL-TIF (T-cell inducible Factor) (ligand)
chain: APISSHCRLDKSNFQQPYITNRTFMLAKEASLADNNTDVRLIGEKLFHGVSMSERCYLMKQVLNFTLEEVLFPQSDRFQPYMQEVVPFLARLSNRLSTCHIEGDDLHIQRNVQKLKDTVKKLGESGEIKAIGELDLLFMSLRNACI
